In patent publication US20070098735A1, “Methods for the Elimination of Pathogens and Other Particulate Agents” (priority 2005, published 2007):

Columns and labels:
[1] = tested on: Murine macrophage lines (RAW264.7, J774.A1 or RAW264NO-); experiment: Phagocytosis assay in vitro (uptake of Alexa Fluor 488-labeled particles); assay type: cell-based
Description: Phagocytosis Assay in vitro. RAW 264.7, RAW264.7 (NO-) and J774A.1 cells were cultured in DMEM or RPMI (RAW NO-) with 10% FCS, harvested, and washed. 3×10^5 cells/well were incubated in serum-free Earle's minimal essential medium (EMEM) in a 24-well plate for 1 hour at 37° C. Alexa Fluor® 488-labeled particles (inert polystyrene microspheres; or yeast, Saccharomyces cerevisiae or Gram-negative bacteria, Escherichia coli, 40 particles/macrophage) were added and co-incubated in a dark environment for 60 minutes in serum free EMEM with or without HSPs, LPS, or control proteins. At the end of 60 minutes incubation, the plate was covered in a dark container on ice. Specific measures were taken to exclude the fluorescence that resulted from particles that were outside of the cell or sticking to the surface of the cell. […] Specifically, trypan blue (0.8 mg/ml) was added for 60 seconds and plates were analyzed immediately using FluorImager SI (Molecular Dynamics/Amersham). Since the emission of Alexa Fluor® 488, about 519 nm at an excitation of about 490 nm, falls within the absorbance range of trypan blue (475-675 nm), the fluorescence of the sample only represents the intracellular fluorescence. External or surface-bound fluorescence is quenched. Using Student's t test, the results were analyzed and P-values were calculated.
HSP-mediated phagocytosis was quantified by measuring the internalized fluorescence measured by FluorImager SI and Relative Mean Fluorescence Intensity (RMFI) was compared between the treatment groups (as indicated). All the treatment groups were compared to medium alone using the Student's t test and significance denoted by P<0.01. The error bar represents one standard deviation. The results shown are a cumulative analysis of 3 experiments, 3 wells/group.

[2] = tested on: CD4+ T cells purified from spleens of DO 11.10 mice; experiment: Proliferation of CD4+ T cells after MHC-II presentation of OVA-coated yeast by macrophages (FACS); assay type: cell-based; settings: cytochalasin-D treatment
Description: Proliferation of CD4+ T cells and INF-γ (interferon gamma) release. Unlabeled S. cerevisiae (80 μg) was incubated with excess chicken ovary albumin (OVA) at 37° C. for 1 hour and washed repeatedly to eliminate free OVA protein. S. cerevisiae-OVA complexes (OVA-coated yeast) were administered to macrophages treated with or without HSP70. Macrophages were then washed and irradiated at 12,000 rads and assessed for viability by trypan blue exclusion. Subsequently, they were co-cultured with CD4+ T lymphocytes that were purified from spleens of DO 11.10 mice and labeled with carboxyfluoroscein succinimidyl ester (CSFE). […] Following the 48-hour incubation, proliferation of CD4+ cells was determined with FACS and IFN-γ release in the supernatant was tested by enzyme-linked immunosorbent assay (ELISA; Pierce, Ill.).
Alexafluor labeled S. cerevisiae were coated with whole ovalbumin (OVA) protein 1 mg/ml by co-incubation at 37° C. for 20 minutes and washed until free OVA protein was removed (washes were tested by gel electrophoresis using SDS-PAGE and immunoblotting). […] Resultant proliferation of the CSFE-labeled CD4+ was measured by FACS as an indirect measure of the amount of OVA protein processed and its peptide epitope presented in context of MHC-II. […]

[3] = molecular target: Toll-like receptor-7 (TLR7) (murine) (UniProt P58681); experiment: cell-based or functional assay
[4] = tested on: full thickness surgical wounds on the dorsum of BALB/cJ mice; experiment: Closure of full thickness surgical wounds, percent wound closure; assay type: in vivo
Description: Surgery and Treatment. Mice were anesthetized using Ketamine (2.0 mg/mouse) and Xylazine (0.1 mg/mouse) were administered intraperitoneally (IP) and the dorsal skin was shaved. After sterile prepping of the area, a full thickness circular wound, 8 mm diameter, was made on the dorsal skin using a disposable biopsy punch (Miltex Inc, York, Pa.) on the midline of the dorsum approximately at the iliac crest. The mice were then randomly assigned into the treatment groups. Initial wound measurements were performed while the mice were still anesthetized. Mice were then treated on days 0, 2, 4, and 6 unless otherwise specified. All agents used as treatment were diluted in 0.5 ml of PBS and injected using a 25-gauge needle in the subcutaneous space in the nape of the neck. The surgical procedures, post-operative monitoring, and safety concerns were approved by the Institutional Animal Care and Usage Committee.
Measurements and Analysis. Wound healing of open wounds is a complex process with many parameters to consider. […] The wound surface area was determined by measuring the craniocaudal and lateromedial distances using vernier calipers in perpendicular axis on days 0, 2, 4, 6, 9, and 11 postoperatively unless noted. Changes in wound area were expressed as percent wound closure. Wound closure data was plotted as average percent wound closure ±SEM unless otherwise noted. All calculations and data analysis were performed using Microsoft Excel and Sigma Plot. Sigma Plot was used to perform Student's t-tests for reported P values.
Full thickness surgical wounds were created on the dorsum of BALB/cJ mice as described in Methods. Wounds were made on day 0. Subsequently, the wounds were treated with exogenous injections of HSP70, HSP90, gp96 (30 μg/dose) or buffer administered subcutaneously (SC) on days 0, 2, 4 and 6 following surgery (FIG. 6A). The wounds were measured on days 0, 2, 4, 6, 9, 11 unless otherwise noted. Wounds were measured serially, percent wound closure was calculated and plotted against time in order to quantitate the rate of healing by secondary intention. […] Data is plotted as average percent wound closure ±SEM on days indicated. Two mice from each treatment group (PBS (n=12), HSP70 (n=11), HSP90 (n=12), and gp96 (n=11)) were sacrificed for histology on days 2, 4, and 6 post-surgery (data not shown). The P values obtain using the Student's t-test.
Results are of average percent wound closure ±SEM on day 2 post surgery. The *P values were obtained using the Student's t-test by comparing HSP treatment to all of the non-HSP control treatments. The least significant P value was reported. […] Doses higher than 50 μg/dose were not tested.

TNF-α = experiment: Wound lysate cytokine production (cytometric bead assay), TNF-α; assay type: in vivo, mice; settings: SC 30 μg dose
Description: Wound and Skin Lysate Cytokine Production. Mice were wounded and treated as stated previously. Wounds were harvested 24 hours after treatment, pulverized in 5 ml of PBS and large debris was removed by straining the wound lysate through a […] mesh strainer. The soluble fraction was then centrifuged for 20 minutes at 14,000 rpm. Protein concentration was then assessed by Bradford assay. Skin samples were taken and processed in the same manner. 250 μg of each sample was then tested for the presence of monocyte chemotactic peptide-1 (MCP-1), tumor necrosis factor-α (TNF-α), and interleukin 6 (IL-6) using the BD Biosciences cytometric bead assay (CBA) mouse inflammatory kit (BD Biosciences Pharmingen, San Diego, and CA.) following the manufacture's protocol.
The wounds were lysed and MCP-1, TNFα and IL-6 levels were quantified (pg/ml of 250 μg of protein). Each sample was tested in duplicate. *P values are the significant difference of cytokines found in wound lysate compared to skin lysate in a treatment group. **P values are the significant differences of cytokines found in PBS treated mice wound lysate compared to the treatment group wound lysate.

Sequence of Toll-like receptor-7 (TLR7) (murine) (P58681 27-1050): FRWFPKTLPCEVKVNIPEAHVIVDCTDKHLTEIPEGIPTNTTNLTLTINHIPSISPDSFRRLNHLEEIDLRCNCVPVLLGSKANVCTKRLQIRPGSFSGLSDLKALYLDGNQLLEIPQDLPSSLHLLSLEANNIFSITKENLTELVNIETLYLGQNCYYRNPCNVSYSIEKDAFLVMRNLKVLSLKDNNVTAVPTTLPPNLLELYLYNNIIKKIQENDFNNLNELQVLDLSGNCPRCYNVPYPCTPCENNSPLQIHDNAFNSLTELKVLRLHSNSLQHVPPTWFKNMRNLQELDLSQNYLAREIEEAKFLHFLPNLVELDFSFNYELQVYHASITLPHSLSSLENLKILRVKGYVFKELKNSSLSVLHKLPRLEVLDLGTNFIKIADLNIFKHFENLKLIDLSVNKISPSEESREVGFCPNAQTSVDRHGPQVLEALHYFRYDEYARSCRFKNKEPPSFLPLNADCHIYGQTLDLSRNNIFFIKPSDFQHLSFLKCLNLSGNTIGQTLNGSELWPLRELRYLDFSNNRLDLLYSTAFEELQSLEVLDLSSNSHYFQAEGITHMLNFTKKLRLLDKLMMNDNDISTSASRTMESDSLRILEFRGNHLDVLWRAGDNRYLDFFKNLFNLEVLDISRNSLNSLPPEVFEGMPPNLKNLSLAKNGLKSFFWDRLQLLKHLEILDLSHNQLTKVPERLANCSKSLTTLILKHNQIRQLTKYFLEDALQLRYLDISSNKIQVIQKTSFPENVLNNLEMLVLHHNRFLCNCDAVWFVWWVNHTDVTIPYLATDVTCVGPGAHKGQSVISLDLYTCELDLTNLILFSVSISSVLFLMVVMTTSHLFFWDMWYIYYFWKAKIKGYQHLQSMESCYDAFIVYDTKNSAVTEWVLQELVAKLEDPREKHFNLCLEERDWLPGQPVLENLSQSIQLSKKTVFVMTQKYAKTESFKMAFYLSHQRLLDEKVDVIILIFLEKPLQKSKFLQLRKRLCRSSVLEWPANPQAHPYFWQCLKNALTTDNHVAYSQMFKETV

In the case of C=C1[C@@H](C)[C@H]2[C@H](Cc3ccccc3)NC(=O)[C@]23[C@H](OC(C)=O)/C=C/[C@@](C)(O)C(=O)[C@@H](C)C/C=C/[C@H]3[C@@H]1O [cytochalasin-D, reference compound], the “effect on HSP70-mediated internalization (actin polymerization inhibited)” value ([1]; cytochalasin-D 4 μM with HSP70) is reported as “showed inhibition of the effects of HSP70” and the “effect on CD4+ proliferation caused by HSP70-treatment” value [2] is reported as “abrogated the proliferation caused by HSP70-treatment”.

“HSP70 purified from murine livers (from UniProt P17879 2-642)” gave a decrease in phagocytic activity of RAW264.7 cells treated with HSP70 in the presence of known TLR7-ligands, compared with HSP70 alone [3] of 45 to 65%.

B1: gp96: heat shock protein (HSP90 family, endoplasmic reticulum) purified from murine livers (protein, UniProt P08113 22-802, looked up)
Endoplasmin: DDEVDVDGTVEEDLGKSREGSRTDDEVVQREEEAIQLDGLNASQIRELREKSEKFAFQAEVNRMMKLIINSLYKNKEIFLRELISNASDALDKIRLISLTDENALAGNEELTVKIKCDKEKNLLHVTDTGVGMTREELVKNLGTIAKSGTSEFLNKMTEAQEDGQSTSELIGQFGVGFYSAFLVADKVIVTSKHNNDTQHIWESDSNEFSVIADPRGNTLGRGTTITLVLKEEASDYLELDTIKNLVRKYSQFINFPIYVWSSKTETVEEPLEEDEAAKEEKEESDDEAAVEEEEEEKKPKTKKVEKTVWDWELMNDIKPIWQRPSKEVEEDEYKAFYKSFSKESDDPMAYIHFTAEGEVTFKSILFVPTSAPRGLFDEYGSKKSDYIKLYVRRVFITDDFHDMMPKYLNFVKGVVDSDDLPLNVSRETLQQHKLLKVIRKKLVRKTLDMIKKIADEKYNDTFWKEFGTNIKLGVIEDHSNRTRLAKLLRFQSSHHSTDITSLDQYVERMKEKQDKIYFMAGSSRKEAESSPFVERLLKKGYEVIYLTEPVDEYCIQALPEFDGKRFQNVAKEGVKFDESEKTKESREATEKEFEPLLNWMKDKALKDKIEKAVVSQRLTESPCALVASQYGWSGNMERIMKAQAYQTGKDISTNYYASQKKTFEINPRHPLIRDMLRRIKEDEDDKTVMDLAVVLFETATLRSGYLLPDTKAYGDRIERMLRLSLNIDPEAQVEEEPEEEPEDTSEDAEDSEQDEGEEMDAGTEEEEEETEKESTEKDEL
modifications: complexed with endogenous peptides
notes: heat shock protein (HSP90 family, endoplasmic reticulum) purified from murine livers
For B1, the “wound closure compared to controls” value ([4]; 5 μg/dose and 50 μg/dose, day 2) was “significant wound closure”, the “wound healing at Day 11” value ([4]; 30 μg/dose SC on days 0, 2, 4 and 6) was “completely healed” and the “dose with the most significant difference in wound closure” value ([4]; doses 5, 30, 50 μg/dose tested) was 30 μg/dose. The “uptake of microbial or non-microbial materials as compared to control proteins or buffer” value ([1]; HSPs 100 μg/ml, P<0.01 vs medium alone) was “increase in uptake”, the “TNF-α content of wounds compared to LPS or MSA” value (TNF-α) was “not significantly elevated” and the “TNF-α content of wounds compared to buffer group” value (TNF-α) was “significantly increased”.
